In patent US20020098193A1:

Columns and labels:
[1] = target: recombinant soluble mouse FcRn (mouse) (UniProt Q61559); assay: inhibition of 125I-sFcRn binding to murine IgG1-Sepharose; molar ratio of inhibitor/FcRn given as 1/500
[2] = target: T1, FcRn of neonatal mouse intestine (mouse) (UniProt Q61559); assay: cell-based or functional assay
T1 sequence (looked up): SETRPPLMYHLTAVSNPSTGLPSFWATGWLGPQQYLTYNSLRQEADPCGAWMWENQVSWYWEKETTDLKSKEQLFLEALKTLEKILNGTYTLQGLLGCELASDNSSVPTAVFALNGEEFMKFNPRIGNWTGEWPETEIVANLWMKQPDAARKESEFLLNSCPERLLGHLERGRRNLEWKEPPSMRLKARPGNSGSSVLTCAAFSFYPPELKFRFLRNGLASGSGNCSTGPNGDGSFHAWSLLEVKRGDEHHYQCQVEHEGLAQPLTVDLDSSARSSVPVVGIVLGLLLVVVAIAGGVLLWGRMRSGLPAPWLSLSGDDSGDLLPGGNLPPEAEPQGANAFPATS
T1 sequence (b2m, looked up): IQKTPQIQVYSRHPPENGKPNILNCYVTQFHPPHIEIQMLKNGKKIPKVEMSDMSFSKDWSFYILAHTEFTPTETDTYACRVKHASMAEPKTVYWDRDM

[3] = target: recombinant soluble mouse FcRn (mouse) (UniProt Q61559); assay: inhibition of 125I-sFcRn binding to murine IgG1-Sepharose; molar ratio of inhibitor/FcRn given as 1/1000

% inhibition [1]: 24.7%
Inhibition of transmission (%) of radiolabeled mIgG1 across the intestine of neonatal mice [2]: 51.4%
% inhibition [3]: 45.6%
B1: complete murine IgG1 molecule (antibody, part only; not given: variable domains and Fab arms, not shown: another chain or arm of the molecule)
Fc: VPRDCGCKPCICTVPEVSSVFIFPPKPKDVLTITLTPKVTCVVVDISKDDPEVQFSWFVDDVEVHTAQTQPREEQFNSTFRSVSELPIMHQDWLNGKEFKCRVNSAAFPAPIEKTISKTKGRPKAPQVYTIPPPKEQMAKDKVSLTCMITDFFPEDITVEWQWNGQPAENYKNTQPIMNTNGSYFVYSKLNVQKSNWEAGNTFTCSVLHEGLHNHHTEKSLSHSPGK
modifications: Glycosylated whole IgG1 from hybridoma or mammalian cells; used free, 125I-labelled or coupled to Sepharose. Two heavy chains are joined at the hinge.
